From patent publication US20140213531A1 (POLYPHOR, published 2014)
Bridges are numbered along the chain shown (N, C = ends). [ ]: non-standard residue; d: D form. Pro(4NHCOPhe) = not defined here; Nle = CCCC[C@H](N)C(=O)O

Tests used:
Chymase, from human skin [1] = target: T1, Chymase, from human skin (human, UniProt P23946 22-247); assay: cell-based or functional assay
T1 sequence (looked up): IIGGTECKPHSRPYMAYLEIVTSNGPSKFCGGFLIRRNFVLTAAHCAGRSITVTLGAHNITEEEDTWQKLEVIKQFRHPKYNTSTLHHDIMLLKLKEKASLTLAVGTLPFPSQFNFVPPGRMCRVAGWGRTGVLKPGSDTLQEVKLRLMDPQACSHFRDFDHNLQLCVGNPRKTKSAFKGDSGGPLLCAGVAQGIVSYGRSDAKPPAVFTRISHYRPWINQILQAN

[2] = target: Trypsin, Iodination grade, from human pancreas (human, UniProt P07477 24-247); assay: cell-based or functional assay
[3] = target: Coagulation Factor Xa, from human plasma (human, UniProt P00742 41-488, limits assumed); assay: cell-based or functional assay
[4] = target: Tryptase, from human lung (human, UniProt Q15661 31-275, limits assumed); assay: cell-based or functional assay
[5] = target: T2, CathepsinG, from human neutrophils (human, UniProt P08311 21-244); assay: cell-based or functional assay
T2 sequence (looked up): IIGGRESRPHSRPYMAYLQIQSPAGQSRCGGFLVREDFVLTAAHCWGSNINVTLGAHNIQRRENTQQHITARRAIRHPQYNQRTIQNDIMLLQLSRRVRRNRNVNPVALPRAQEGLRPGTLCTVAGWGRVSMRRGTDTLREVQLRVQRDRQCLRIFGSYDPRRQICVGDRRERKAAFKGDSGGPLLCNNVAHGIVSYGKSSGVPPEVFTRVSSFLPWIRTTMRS

[6] = target: T3, Elastase from human neutrophils (human, UniProt P08246 30-247, limits assumed); assay: cell-based or functional assay
T3 sequence (looked up): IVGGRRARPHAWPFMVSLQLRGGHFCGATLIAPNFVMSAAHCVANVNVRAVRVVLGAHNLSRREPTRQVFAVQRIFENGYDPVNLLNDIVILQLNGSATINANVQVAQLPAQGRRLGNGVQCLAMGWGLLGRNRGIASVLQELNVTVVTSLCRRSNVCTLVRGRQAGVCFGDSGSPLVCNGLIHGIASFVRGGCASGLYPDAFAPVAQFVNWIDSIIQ

[7] = target: Urokinase from human urine (human, UniProt P00749 21-431, limits assumed); assay: cell-based or functional assay
[8] = target: Chymotrypsin, from human pancreas (human, UniProt P17538 19-263); assay: cell-based or functional assay
[9] = target: Thrombin, from Human Plasma, high activity (human, UniProt P00734 328-622); assay: cell-based or functional assay
Chymase, from human skin [10] = target: T4, Chymase, from human skin (human, UniProt P23946 22-247); assay: enzyme inhibition, pNA substrate
T4 construct: purified natural enzyme, bought
T4 sequence (looked up): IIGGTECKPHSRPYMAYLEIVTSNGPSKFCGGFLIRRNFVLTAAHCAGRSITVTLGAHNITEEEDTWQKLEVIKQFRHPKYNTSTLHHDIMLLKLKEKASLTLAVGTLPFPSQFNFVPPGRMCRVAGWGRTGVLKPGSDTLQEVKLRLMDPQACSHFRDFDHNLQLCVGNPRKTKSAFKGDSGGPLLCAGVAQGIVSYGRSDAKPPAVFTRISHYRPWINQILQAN

Chain of Tryptase, from human lung (Q15661 31-275 limits assumed): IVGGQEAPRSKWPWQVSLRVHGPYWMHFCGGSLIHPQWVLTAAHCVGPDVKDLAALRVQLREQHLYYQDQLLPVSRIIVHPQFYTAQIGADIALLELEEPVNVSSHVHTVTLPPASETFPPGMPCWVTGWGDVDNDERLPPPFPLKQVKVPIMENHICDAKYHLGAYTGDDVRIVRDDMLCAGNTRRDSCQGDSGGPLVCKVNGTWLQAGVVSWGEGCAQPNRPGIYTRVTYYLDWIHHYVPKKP
Chain of Chymotrypsin, from human pancreas (P17538 19-263): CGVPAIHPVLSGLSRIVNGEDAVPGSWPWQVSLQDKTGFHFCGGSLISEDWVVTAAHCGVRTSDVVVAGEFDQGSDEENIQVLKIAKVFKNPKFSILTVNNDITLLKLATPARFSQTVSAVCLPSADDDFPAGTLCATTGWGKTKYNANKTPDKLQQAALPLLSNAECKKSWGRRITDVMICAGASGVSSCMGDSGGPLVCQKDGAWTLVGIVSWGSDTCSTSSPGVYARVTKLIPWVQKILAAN
Chain of Coagulation Factor Xa, from human plasma (P00742 41-488 limits assumed): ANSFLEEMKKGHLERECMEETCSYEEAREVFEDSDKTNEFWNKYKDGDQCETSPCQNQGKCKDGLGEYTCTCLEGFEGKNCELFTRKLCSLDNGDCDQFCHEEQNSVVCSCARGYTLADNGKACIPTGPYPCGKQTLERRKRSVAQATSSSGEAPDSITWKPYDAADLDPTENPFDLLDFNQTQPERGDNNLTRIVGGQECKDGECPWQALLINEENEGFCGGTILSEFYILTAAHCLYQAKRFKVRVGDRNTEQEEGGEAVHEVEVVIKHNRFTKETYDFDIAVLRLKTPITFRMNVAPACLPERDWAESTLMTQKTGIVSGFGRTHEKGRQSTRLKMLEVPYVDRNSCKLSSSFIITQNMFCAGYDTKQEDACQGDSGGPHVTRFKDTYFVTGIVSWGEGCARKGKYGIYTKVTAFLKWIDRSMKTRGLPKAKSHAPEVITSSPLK

B1: Example 75 (peptide)
peptide: RCTKSDPPICF
HELM: PEPTIDE1{R.C.T.K.S.D.P.P.I.C.F.[dP].P}$PEPTIDE1,PEPTIDE1,2:R3-10:R3|PEPTIDE1,PEPTIDE1,1:R1-13:R2$$$V2.0
SMILES: CC[C@H](C)[C@@H]1NC(=O)[C@@H]2CCCN2C(=O)[C@@H]2CCCN2C(=O)[C@H](CC(=O)O)NC(=O)[C@H](CO)NC(=O)[C@H](CCCCN)NC(=O)[C@H]([C@@H](C)O)NC(=O)[C@@H]2CSSC[C@H](NC1=O)C(=O)N[C@@H](Cc1ccccc1)C(=O)N1CCC[C@@H]1C(=O)N1CCC[C@H]1C(=O)N[C@@H](CCCNC(=N)N)C(=O)N2
For B1, the “% inhibition at 100 µM” value (Chymase, from human skin [1]) was 0%, the “% inhibition at 100 µM” value [2] was 92.6% and the “% inhibition at 100 µM” value [3] was 5.7%. The “% inhibition at 100 µM” value [4] was 0%, the IC50 [5] was 86 nmol and the “% inhibition at 100 µM” value [6] was 69.1%. The “% inhibition at 100 µM” value [7] was 5.7%, the “% inhibition at 100 µM” value [8] was 7.8% and the “% inhibition at 100 µM” value [9] was 1.1%.

B2: Example 5 (peptide)
peptide: FCTKSDPPICY
HELM: PEPTIDE1{F.C.T.K.S.D.P.P.I.C.Y.[dP].P}$PEPTIDE1,PEPTIDE1,2:R3-10:R3|PEPTIDE1,PEPTIDE1,1:R1-13:R2$$$V2.0
SMILES: CC[C@H](C)[C@@H]1NC(=O)[C@@H]2CCCN2C(=O)[C@@H]2CCCN2C(=O)[C@H](CC(=O)O)NC(=O)[C@H](CO)NC(=O)[C@H](CCCCN)NC(=O)[C@H]([C@@H](C)O)NC(=O)[C@@H]2CSSC[C@H](NC1=O)C(=O)N[C@@H](Cc1ccc(O)cc1)C(=O)N1CCC[C@@H]1C(=O)N1CCC[C@H]1C(=O)N[C@@H](Cc1ccccc1)C(=O)N2
With B2 the “% inhibition at 100 µM” value (Chymase, from human skin [1]) was 0%, the “% inhibition at 100 µM” value [2] was 92% and the “% inhibition at 100 µM” value [3] was 0.2%. The “% inhibition at 100 µM” value [4] was 74%, the IC50 [5] was 56 nmol and the IC50 [6] was greater than 100000 nmol. For the same binder, the “% inhibition at 100 µM” value [7] was 5.7%, the “% inhibition at 100 µM” value [8] was 3% and the “% inhibition at 100 µM” value [9] was 0.5%.

In the case of cyclo([Nle]CTASIP[Pro(4NHCOPhe)]QCY[dP]P) (disulfide 2-10; reading uncertain, also called Ex. 88) [Example 88], the “% inhibition at 100 µM” value (Chymase, from human skin [10]) is reported as 0%.

B3: Example 12 (peptide)
peptide: XCTKSDPPICR
HELM: PEPTIDE1{[O=C([C@@H](N[*:1])C1CCCCC1)[*:2]].C.T.K.S.D.P.P.I.C.R.[dP].P}$PEPTIDE1,PEPTIDE1,2:R3-10:R3|PEPTIDE1,PEPTIDE1,1:R1-13:R2$$$V2.0
SMILES: CC[C@H](C)[C@@H]1NC(=O)[C@@H]2CCCN2C(=O)[C@@H]2CCCN2C(=O)[C@H](CC(=O)O)NC(=O)[C@H](CO)NC(=O)[C@H](CCCCN)NC(=O)[C@H]([C@@H](C)O)NC(=O)[C@@H]2CSSC[C@H](NC1=O)C(=O)N[C@@H](CCCNC(=N)N)C(=O)N1CCC[C@@H]1C(=O)N1CCC[C@H]1C(=O)N[C@@H](C1CCCCC1)C(=O)N2
In the case of B3, the “% inhibition at 100 µM” value (Chymase, from human skin [1]) is reported as 12%, the “% inhibition at 100 µM” value [2] is reported as 97% and the “% inhibition at 100 µM” value [3] is reported as 5%. The “% inhibition at 100 µM” value [4] was 59.3%, the IC50 [5] was 90 nmol and the IC50 [6] was 37000 nmol. The “% inhibition at 100 µM” value [7] was 12%, the “% inhibition at 100 µM” value [8] was 28% and the “% inhibition at 100 µM” value [9] was 11%.

B4: Example 68 (peptide)
peptide: FCTKSDPPICS
HELM: PEPTIDE1{F.C.T.K.S.D.P.P.I.C.S.[dA].D}$PEPTIDE1,PEPTIDE1,2:R3-10:R3|PEPTIDE1,PEPTIDE1,1:R1-13:R2$$$V2.0
SMILES: CC[C@H](C)[C@@H]1NC(=O)[C@@H]2CCCN2C(=O)[C@@H]2CCCN2C(=O)[C@H](CC(=O)O)NC(=O)[C@H](CO)NC(=O)[C@H](CCCCN)NC(=O)[C@H]([C@@H](C)O)NC(=O)[C@@H]2CSSC[C@H](NC1=O)C(=O)N[C@@H](CO)C(=O)N[C@H](C)C(=O)N[C@@H](CC(=O)O)C(=O)N[C@@H](Cc1ccccc1)C(=O)N2
With B4 the “% inhibition at 100 µM” value (Chymase, from human skin [1]) was 0%, the “% inhibition at 100 µM” value [2] was 84.2% and the “% inhibition at 100 µM” value [3] was 8.6%. The “% inhibition at 100 µM” value [4] was 21.3%, the IC50 [5] was 59 nmol and the IC50 [6] was greater than 100000 nmol. For the same binder, the “% inhibition at 100 µM” value [7] was 4.6%, the “% inhibition at 100 µM” value [8] was 4.3% and the “% inhibition at 100 µM” value [9] was 5.4%.

B5: Example 7 (peptide)
peptide: RETKSDPPIRF
HELM: PEPTIDE1{R.E.T.K.S.D.P.P.I.R.F.[dP].P}$PEPTIDE1,PEPTIDE1,1:R1-13:R2$$$V2.0
SMILES: CC[C@H](C)[C@@H]1NC(=O)[C@@H]2CCCN2C(=O)[C@@H]2CCCN2C(=O)[C@H](CC(=O)O)NC(=O)[C@H](CO)NC(=O)[C@H](CCCCN)NC(=O)[C@H]([C@@H](C)O)NC(=O)[C@H](CCC(=O)O)NC(=O)[C@H](CCCNC(=N)N)NC(=O)[C@@H]2CCCN2C(=O)[C@H]2CCCN2C(=O)[C@H](Cc2ccccc2)NC(=O)[C@H](CCCNC(=N)N)NC1=O
With B5 the “% inhibition at 100 µM” value (Chymase, from human skin [1]) was 13.4%, the “% inhibition at 100 µM” value [2] was 41% and the “% inhibition at 100 µM” value [3] was 11.7%. For the same binder, the “% inhibition at 100 µM” value [4] was 1.5%, the IC50 [5] was 91 nmol and the “% inhibition at 100 µM” value [6] was 1.5%. For the same binder, the “% inhibition at 100 µM” value [7] was 1.1%, the “% inhibition at 100 µM” value [8] was 12% and the “% inhibition at 100 µM” value [9] was 0%.

B6: Example 63 (peptide)
peptide: XCTKSDPPXCY
HELM: PEPTIDE1{[O=C([C@@H](N[*:1])C1CCCCC1)[*:2]].C.T.K.S.D.P.P.[Nle].C.Y.[dP].P}$PEPTIDE1,PEPTIDE1,2:R3-10:R3|PEPTIDE1,PEPTIDE1,1:R1-13:R2$$$V2.0
SMILES: CCCC[C@@H]1NC(=O)[C@@H]2CCCN2C(=O)[C@@H]2CCCN2C(=O)[C@H](CC(=O)O)NC(=O)[C@H](CO)NC(=O)[C@H](CCCCN)NC(=O)[C@H]([C@@H](C)O)NC(=O)[C@@H]2CSSC[C@H](NC1=O)C(=O)N[C@@H](Cc1ccc(O)cc1)C(=O)N1CCC[C@@H]1C(=O)N1CCC[C@H]1C(=O)N[C@@H](C1CCCCC1)C(=O)N2
For B6, the “% inhibition at 100 µM” value (Chymase, from human skin [1]) was 7%, the “% inhibition at 100 µM” value [2] was 96% and the “% inhibition at 100 µM” value [3] was 0%. For the same binder, the “% inhibition at 100 µM” value [4] was 50%, the IC50 [5] was 41 nmol and the IC50 [6] was greater than 100000 nmol. For the same binder, the “% inhibition at 100 µM” value [7] was 0%, the “% inhibition at 100 µM” value [8] was 11% and the “% inhibition at 100 µM” value [9] was 1%.

B7: Example 64 (peptide)
peptide: FCTKSDPPICS
HELM: PEPTIDE1{F.C.T.K.S.D.P.P.I.C.S.[dP].E}$PEPTIDE1,PEPTIDE1,2:R3-10:R3|PEPTIDE1,PEPTIDE1,1:R1-13:R2$$$V2.0
SMILES: CC[C@H](C)[C@@H]1NC(=O)[C@@H]2CCCN2C(=O)[C@@H]2CCCN2C(=O)[C@H](CC(=O)O)NC(=O)[C@H](CO)NC(=O)[C@H](CCCCN)NC(=O)[C@H]([C@@H](C)O)NC(=O)[C@@H]2CSSC[C@H](NC1=O)C(=O)N[C@@H](CO)C(=O)N1CCC[C@@H]1C(=O)N[C@@H](CCC(=O)O)C(=O)N[C@@H](Cc1ccccc1)C(=O)N2
For B7, the “% inhibition at 100 µM” value (Chymase, from human skin [1]) was 0%, the “% inhibition at 100 µM” value [2] was 87% and the “% inhibition at 100 µM” value [3] was 0%. The “% inhibition at 100 µM” value [4] was 0%, the IC50 [5] was 45 nmol and the IC50 [6] was greater than 100000 nmol. For the same binder, the “% inhibition at 100 µM” value [7] was 3%, the “% inhibition at 100 µM” value [8] was 0% and the “% inhibition at 100 µM” value [9] was 2.3%.
